Data reported in patent US20250206843A1 (NATIONAL INSTITUTE FOR BIOTECHNOLOGY IN THE NEGEV, published 2025).

Assays:
human HER3, on cells [1] = target: T1, human HER3, on cells (human, UniProt P21860 20-1342); test: flow cytometry on HEK 293 cells expressing HER3, anti-VHH-488 detection, n=3
T1 construct: whole, on cells; also called ErbB3

[2] = target: T2, human epidermal growth factor receptor 2 (HER2), on cells (human, UniProt P04626 23-1255); test: flow cytometry on SkBr3 cells in the presence of Neuregulin-1 (NRG; the legend prints 1.8 mM), anti-VHH-488 detection, n=3
T2 construct: whole, on cells; Target of the flow cytometry and imaging experiments (HEK 293 cells expressing HER2; SkBr3 cells); also called ErbB2; HER2 receptor
Procedure: (§1) FIGS. 6A-6D. Nb46 binding to HER2 cell-receptors by FACS analysis. […] The fluorescent signal was subtracted from that of cells incubated with the antibody alone and normalized relative to the highest signal (FIG. 6B), n=3. FIG. 6C—Affinity binding of NB46 with SkBr3 cells conducted with and without 1.8 mM Neuregulin-1 (NRG) following 1 hour incubation. Data was fitted with a sigmoidal curve in Excel (dashed lines), n=3.
(§2) Nb46 binding of HER2+ cancer cells—SkBr3 cells were grown to 70-90% confluency in T-75 flasks overnight. The cells were detached by aspirating the medium and washing cells with 10 mL hot PBS before pipetting 5 mL of non-enzymatic cell dissociation solution (Biological Industries, Beit Haemek, Israel) and incubating for 5 minutes at 37° C. […] The cells were Incubated for 1 h at 4° C. on a tubes rotator after which the cells were washed off of unbound Nb; cells were centrifuged at 350 g for 5 minutes, supernatant discarded, and cells resuspend in 900 μL of PBS-FBS, repeatedly for 3 times. After the 3rd centrifugation, the cells were resuspended in 300 μL PBS-FBS containing iFluor488-conjugated anti-camelid VHH (1:1000, Genescript, NJ, USA), and incubated for additional 1 h at 4° C. on a tubes rotator, in the dark. […]

[3] = target: T3, human HER2-His extracellular-domain protein (human, UniProt P04626 23-652); test: SPR, Biacore T200; HER2-His ECD immobilized, Nb46 as analyte; HER2 immobilized, Nb46 as analyte
T3 construct: extracellular domain; Bought protein; also called recombinant HER2; not shown: His tag
Procedure: (§3) SPR binding assay—The affinity of Nbs to HER2 or HER3 was determined in two ways by using surface plasmon resonance (SPR) spectroscopy. SPR measurements were performed on a Biacore T200 instrument. In one layout, purified Nb38 (10 μg/ml) and Nb46 (20 μg/ml) were immobilized on a CM5 chip using an amine coupling kit (GE Healthcare, Chicago, IL). The analytes, human HER2-His or HER3-His extracellular-domain proteins (R&D systems, Minneapolis, MN) dissolved in PBST (PBS supplemented with 0.05% Tween-20 v/v), were flown at 30 μl/min, and the chip was regenerated using 2 mM NaOH. In a second layout, the purified human HER2-His or HER3-His extracellular-domain proteins, at 10 μg/ml, were immobilized on a CM5 chip). The analytes, NB46 and NB38 (and NB7 as a negative control), were flown at 30 μl/min in PBST, and the chip was regenerated using 20 mM glycine. Binding was allowed for 180 s and dissociation for 600 s. Curves were fitted using Biacore's evaluation software using a 1:1 ligand:analyte binding model to retrieve association rate constants (ka), dissociation rate constants (kd), and equilibrium dissociation constants (KD, a measurement of affinity).

[4] = target: T4, HER2 and HER3 co-expressed on cells (HER2/3) (human, UniProt P04626 23-1255; P21860 20-1342); test: flow cytometry on HEK 293 cells expressing HER2 and HER3, anti-VHH-488 detection, signal normalised to the highest signal, n=3
T4 construct: whole, on cells; Dubca camel fibroblasts in the periplasmic ELISA screen; also called HER2/HER3
Procedure: as §1

[5] = target: T2, human epidermal growth factor receptor …; test: flow cytometry on SkBr3 cells without Neuregulin-1, anti-VHH-488 detection, n=3
Procedure: as §1, §2

[6] = target: T2, human epidermal growth factor receptor …; test: flow cytometry on HEK 293 cells expressing HER2, anti-VHH-488 detection, n=3
Procedure: as §1

[7] = target: T2, human epidermal growth factor receptor …; test: flow cytometry titration on SkBr3 HER2+ breast cancer cells
Procedure: as §1, §2

[8] = target: T3, human HER2-His extracellular-domain …; test: SPR, Biacore T200; Nb46 immobilized (ligand), HER2 as analyte
Procedure: as §3

[9] = target: T3, human HER2-His extracellular-domain …; test: SPR, Biacore T200; HER2 immobilized (ligand), Nb46 as analyte
Procedure: as §3

[10] = target: T3, human HER2-His extracellular-domain …; test: SPR, Biacore T200; average of the two orientations
Procedure: as §3

[11] = target: T3, human HER2-His extracellular-domain …; test: SPR, Biacore T200; average of the two orientations; average of the two orientations
Procedure: as §3

[12] = target: T3, human HER2-His extracellular-domain …; test: SPR, Biacore T200; Nb46 immobilized, HER2-His ECD as analyte; Nb46 immobilized, HER2 as analyte
Procedure: as §3

[13] = target: T2, human epidermal growth factor receptor …; test: flow cytometry on HEK 293 cells expressing HER2, anti-VHH-488 detection, signal normalised to the highest signal, n=3
Procedure: as §1

[14] = target: T5, human HER3-His extracellular-domain protein (human, UniProt P21860 20-643); test: SPR, Biacore T200, both orientations
T5 construct: extracellular domain; Bought protein; not shown: His tag
Procedure: as §3

[15] = target: T4, HER2 and HER3 co-expressed on cells …; test: flow cytometry on HEK 293 cells expressing HER2 and HER3, anti-VHH-488 detection, n=3
Procedure: as §1

[16] = target: T2, human epidermal growth factor receptor …; test: flow cytometry on SkBr3 cells, Nb46-AF647 detected with secondary anti-VHH-488 antibody
Procedure: as §1, §2

human HER3, on cells [17] = target: T1, human HER3, on cells; test: flow cytometry on cells expressing HER3
[18] = target: T4, HER2 and HER3 co-expressed on cells …; test: flow cytometry on cells co-expressing HER2 and HER3
[19] = target: T2, human epidermal growth factor receptor …; test: flow cytometry on cells expressing HER2

T1 sequence (P21860 20-1342): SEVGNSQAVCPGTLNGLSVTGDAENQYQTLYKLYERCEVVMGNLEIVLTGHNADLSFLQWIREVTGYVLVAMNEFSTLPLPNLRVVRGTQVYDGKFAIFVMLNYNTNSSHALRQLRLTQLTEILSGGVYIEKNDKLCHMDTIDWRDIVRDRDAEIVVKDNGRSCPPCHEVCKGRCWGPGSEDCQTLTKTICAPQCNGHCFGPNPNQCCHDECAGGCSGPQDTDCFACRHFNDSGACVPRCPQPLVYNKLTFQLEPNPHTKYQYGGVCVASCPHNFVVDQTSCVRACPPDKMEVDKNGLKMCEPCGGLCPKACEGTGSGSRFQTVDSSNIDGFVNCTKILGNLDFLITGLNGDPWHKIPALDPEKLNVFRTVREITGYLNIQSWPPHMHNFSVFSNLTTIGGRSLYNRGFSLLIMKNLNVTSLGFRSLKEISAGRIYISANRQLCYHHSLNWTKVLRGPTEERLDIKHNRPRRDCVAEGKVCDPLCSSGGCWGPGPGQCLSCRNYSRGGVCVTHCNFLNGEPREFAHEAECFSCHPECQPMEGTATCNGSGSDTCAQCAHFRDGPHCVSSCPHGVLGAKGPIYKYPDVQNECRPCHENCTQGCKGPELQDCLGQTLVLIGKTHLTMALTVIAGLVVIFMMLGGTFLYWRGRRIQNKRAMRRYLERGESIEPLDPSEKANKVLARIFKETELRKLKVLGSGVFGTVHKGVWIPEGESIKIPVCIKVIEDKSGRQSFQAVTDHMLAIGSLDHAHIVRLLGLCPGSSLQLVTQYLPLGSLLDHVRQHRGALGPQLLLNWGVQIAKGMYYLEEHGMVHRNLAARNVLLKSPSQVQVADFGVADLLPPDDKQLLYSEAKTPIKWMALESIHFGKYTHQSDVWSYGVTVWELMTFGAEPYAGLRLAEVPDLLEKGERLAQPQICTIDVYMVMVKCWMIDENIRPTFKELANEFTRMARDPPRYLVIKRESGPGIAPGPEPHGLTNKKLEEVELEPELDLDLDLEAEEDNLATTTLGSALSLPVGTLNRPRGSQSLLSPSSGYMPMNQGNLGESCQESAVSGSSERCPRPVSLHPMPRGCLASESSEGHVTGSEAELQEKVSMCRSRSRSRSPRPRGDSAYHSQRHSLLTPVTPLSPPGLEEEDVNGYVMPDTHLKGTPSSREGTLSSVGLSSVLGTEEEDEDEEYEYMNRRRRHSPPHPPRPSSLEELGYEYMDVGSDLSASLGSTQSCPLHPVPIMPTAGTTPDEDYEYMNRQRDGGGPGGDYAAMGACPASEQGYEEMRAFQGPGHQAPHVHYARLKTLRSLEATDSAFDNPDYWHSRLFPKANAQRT
T5 sequence (P21860 20-643): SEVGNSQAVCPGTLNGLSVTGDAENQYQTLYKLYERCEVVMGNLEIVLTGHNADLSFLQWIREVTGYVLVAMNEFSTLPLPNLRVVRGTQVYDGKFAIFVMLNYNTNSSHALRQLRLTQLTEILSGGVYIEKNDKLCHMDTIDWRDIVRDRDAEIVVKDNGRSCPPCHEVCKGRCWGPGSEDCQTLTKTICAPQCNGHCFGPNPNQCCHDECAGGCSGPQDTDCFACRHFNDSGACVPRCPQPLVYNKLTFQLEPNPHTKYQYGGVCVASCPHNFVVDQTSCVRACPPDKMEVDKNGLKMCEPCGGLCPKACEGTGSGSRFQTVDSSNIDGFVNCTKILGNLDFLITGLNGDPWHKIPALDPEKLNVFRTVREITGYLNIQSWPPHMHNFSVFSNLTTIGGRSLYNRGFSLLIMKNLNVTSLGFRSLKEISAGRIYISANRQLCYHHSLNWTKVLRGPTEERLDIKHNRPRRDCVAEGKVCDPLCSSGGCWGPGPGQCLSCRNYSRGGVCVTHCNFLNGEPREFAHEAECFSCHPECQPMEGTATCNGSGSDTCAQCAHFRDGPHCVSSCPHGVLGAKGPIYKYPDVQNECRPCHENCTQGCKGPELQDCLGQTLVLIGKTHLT

B1: Nb46 (VHH)
VHH: QVQLQESGGGSVQAGGSLRLSCVVSGYFYYDHYYVAWFRQAPGKEREGVALINGRDSDTYYADSVKGRFTISQDSAKNTVYLQMNSLKPEDTAIYYCAANPGEAFTVLPPRVFRNWGQGTQVTVSS
notes: also called N46
Does B1 bind (human HER3, on cells [1])?
Result: no binding (tested: 25 nM)

What about the “EC50 (read off the curve)” value [2] of the same binder?
The value was roughly 0.8 nM.

What about the Kd [3] of the same binder?
The Kd was 0.24 nM.

And the “EC50 (read off the curve)” value [4]?
Its value is roughly 0.8 nM.

And the “EC50 (read off the curve)” value [5]?
Its value is roughly 0.9 nM.

And the “EC50 (read off the curve)” value [6]?
Its value is roughly 0.8 nM.

And the Kd [7]?
Its Kd is 0.8 nM.

What about the koff [8] of the same binder?
The koff was 0.00221 s⁻¹.

What about the kon [8] of the same binder?
The kon was 1.26e+07 M⁻¹ s⁻¹.

And the koff [9]?
Its koff is 0.00154 s⁻¹.

And the kon [9]?
The kon was 6.26e+06 M⁻¹ s⁻¹.

And the koff [10]?
The koff was 0.00187 s⁻¹.

What about the kon [10] of the same binder?
The kon was 9.42e+06 M⁻¹ s⁻¹.

And the Kd [11]?
Its Kd is 0.21 nM.

What about the Kd [12] of the same binder?
Its Kd is 0.17 nM.

What about the “EC50 (read off the curve)” value [13] of the same binder?
Its value is roughly 0.8 nM.

Does B1 bind [14]?
Result: no binding

What about the “EC50 (read off the curve)” value [15] of the same binder?
Its value is roughly 0.9 nM.

B2: Nb46-AF647 (VHH)
VHH: QVQLQESGGGSVQAGGSLRLSCVVSGYFYYDHYYVAWFRQAPGKEREGVALINGRDSDTYYADSVKGRFTISQDSAKNTVYLQMNSLKPEDTAIYYCAANPGEAFTVLPPRVFRNWGQGTQVTVSS
modifications: Alexa Fluor 647 (NHS ester), approximately 1 mole dye/mole NB; labelled residue not stated
notes: also called N46-Af647
Does B2 bind [16]?
Result: binds

B3: Nb38 (VHH)
VHH: QVQLQESGGGSVQAGGSLKLSCVASGFTRSMGWARQAPGKEREGVVCINNYNIGSGKWYADSVKGRFTISRDNDKNTVSLQMNSLKPEDTAIYYCAASPLYLCDNSSWFAAGFAAGSHVWGQGTQVTVSS
notes: Camel VHH expressed from pMECS (C-terminal HA and 6xHis tags) and purified on Ni-NTA; also called N38
Does B3 bind (human HER3, on cells [17])?
Result: no binding

Does B3 bind [18]?
Result: no binding

Does B3 bind [19]?
Result: no binding
